The values that follow are results of earlier work, collected in patent US5998408A, “Triterpene derivatives with immunosuppressant activity” (Merck & Co., Inc., priority 1997, dated 1999).

As a reminder, the IC50 is the concentration that inhibits the measured activity by half.

This data set addresses T1, Kv 1.3 channels (CHO cells transfected with Kv 1.3 channels) (Homo sapiens, UniProt P22001).
T1 construct: expressed in transfected cells; host or cells: CHO cells
To be noted: stated property of the reference blocker used to set the efflux window.

T1 sequence (P22001 whole entry): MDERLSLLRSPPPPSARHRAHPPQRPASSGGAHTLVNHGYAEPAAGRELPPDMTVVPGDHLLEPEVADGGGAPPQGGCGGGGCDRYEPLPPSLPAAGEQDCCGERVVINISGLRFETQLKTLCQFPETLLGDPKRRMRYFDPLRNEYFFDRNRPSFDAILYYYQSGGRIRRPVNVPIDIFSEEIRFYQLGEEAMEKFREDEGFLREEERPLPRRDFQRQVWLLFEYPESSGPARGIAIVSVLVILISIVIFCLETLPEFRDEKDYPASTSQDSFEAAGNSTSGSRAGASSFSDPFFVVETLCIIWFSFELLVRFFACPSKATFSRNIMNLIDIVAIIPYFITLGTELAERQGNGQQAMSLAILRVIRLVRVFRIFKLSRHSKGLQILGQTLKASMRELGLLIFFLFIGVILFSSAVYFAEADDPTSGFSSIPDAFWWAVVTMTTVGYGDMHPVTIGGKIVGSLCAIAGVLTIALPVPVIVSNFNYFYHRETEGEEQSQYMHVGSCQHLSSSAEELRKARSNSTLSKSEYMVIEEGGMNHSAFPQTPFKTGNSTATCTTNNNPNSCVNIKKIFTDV

Turning to “margatoxin (TIINVKCTSPKQCLPPCKAQFGQSAGAKCMNGKCKCYPH; UniProt P40755 1-39, looked up)”, the 50% inhibitory concentration (IC50) was 100 pM.
